For this test, the target named is Porphyromonas gingivalis heme-binding protein HmuY, heme-bound form (holo-HmuY) (Porphyromonas gingivalis). The test can be described thus: crystal structure; holo-HmuY (heme-bound), sitting-drop vapor diffusion at 20°C, 26 mg/mL protein in 5 mM Tris/HCl pH 8.0, reservoir 2.4 M (NH4)2SO4, 0.1 M MES pH 6.0; tetragonal crystals, one dimer per asymmetric unit; tetramer created by a local and a crystallographic two-fold axis.

For orientation: stoichiometry N means the number of molecules, sites or subunits per partner or assembly.

With “Porphyromonas gingivalis heme-binding protein HmuY, heme-bound form (holo-HmuY) (natural protein)”, the stoichiometry N came to 4.

The values are drawn from publication PMC2671838.
